Reference: patent US20060204498A1 (MERCK SERONO, published 2006)
Numbering of substitutions follows the chain as printed.

T1: human CXCR3 (human, UniProt P49682 1-368)
T1 construct: whole, on cells; in FACS and chemotaxis on whole transfected HEK or L1.2 cells; also called GPR9
T1 sequence (looked up): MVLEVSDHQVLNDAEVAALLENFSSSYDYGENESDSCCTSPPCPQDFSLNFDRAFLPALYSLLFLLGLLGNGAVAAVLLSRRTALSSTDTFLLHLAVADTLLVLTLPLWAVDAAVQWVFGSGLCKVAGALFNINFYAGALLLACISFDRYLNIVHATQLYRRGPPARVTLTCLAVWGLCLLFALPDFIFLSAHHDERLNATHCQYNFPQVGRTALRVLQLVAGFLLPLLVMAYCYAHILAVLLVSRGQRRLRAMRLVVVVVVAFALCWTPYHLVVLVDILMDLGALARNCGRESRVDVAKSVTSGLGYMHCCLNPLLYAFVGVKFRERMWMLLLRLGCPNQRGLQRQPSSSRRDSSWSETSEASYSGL

B1: mature human CXCL11 (CXCL11-WT) (ligand)
chain: FPMFKRGRCLCIGPGVKAVKVADIEKASIMYPSNNCDKIEVIITLKENKGQRCLNPKSKQARLIIKKVERKNF
notes: 73 residues with no additional residues; also called hCXCL11; I-TAC
B2: [125I]-CXCL11 (radiolabelled recombinant human I-TAC; Peprotech) (ligand, UniProt O14625 22-94, looked up)
chain: B1 chain
modifications: [125I] label, site not stated
notes: Commercial protein; also called Radiolabelled CXCL11; radiolabelled, commercial CXCL11
B3: CXCL11-4B4 (ligand)
chain: B1 chain with K66A, K67A, R70A, K71A
notes: Mutein of mature human CXCL11; E. coli, leader cleaved with caspase 8; also called CXCLII-4B4
B4: CXCL11-3B3 (ligand)
chain: B1 chain with K57A, K59A, R62A
notes: Mutein of mature human CXCL11; E. coli, leader cleaved with caspase 8; also called CXCLII-3B3
B5: CXCL11-2B3 (ligand)
chain: B1 chain with K46A, K49A, R52A
notes: Mutein of mature human CXCL11; E. coli, leader cleaved with caspase 8; also called CXCLII-2B3

Experiments:
human CXCR3 [1] = target: T1, human CXCR3; test: equilibrium competition receptor binding, SPA, [125I]-CXCL11 tracer, membranes of CXCR3-expressing HEK cells
Method: The assays were carried out on membranes from HEK cells stably expressing CXCR3 using a Scintillation Proximity Assay (SPA), with [¹²⁵I]-CXCL11 as tracer. Radiolabelled CXCL11 (recombinant human I-TAC; Peprotech) was generated and tested according to the [¹²⁵I] supplier (Amersham; specific activity of […]), also to check for CXCR3-expressing HEK and L1.2 clones positively stained during FACS analysis.
Competitors were prepared by serial dilutions (range from 10⁻⁶ to 10⁻¹² M) of the unlabelled CXCL11, or one of its mutant, in the binding buffer (50 mM HEPES pH 7.2, 1 mM CaCl₂, 5 mM MgCl₂, 0.15 M NaCl and 0.5% Bovine Serum Albumin). Wheat germ SPA beads (Amersham) were solubilised in PBS to 50 mg/ml, and diluted in the binding buffer to a 10 mg/ml, and the final concentration in the assay was 0.25 mg/well. Cell membranes expressing CXCR3 were stored at −80° C. and diluted in the binding buffer to 20 μg/ml. Equal volumes of membrane and beads stocks were mixed before performing the assay to reduce background. The final membrane concentration was 5 μg/well and that of [¹²⁵I]-CXCL11 was 0.05 nM. The plates were incubated at room temperature with agitation for 4 hours. Radioactivity was counted (1 minute/well) in a beta counter. Data from triplicate samples were analysed using Prism® software (GraphPad).
Finally, an equilibrium competition receptor-binding assay was performed to compare the properties of the muteins on the binding of the specific receptor CXCR3 (FIG. 3). Samples containing a constant amount of radiolabelled, commercial CXCL11 were mixed with serial dilutions of CXCL11-WT, or of one of the muteins, and then incubated with membranes prepared from CXCR3-expressing HEK cells. […] Therefore, the affinity for the receptor is substantially retained in heparin-binding defective CXCL11-WT carboxyl-terminal mutants, whilst the mutations in amino-terminus affect specifically receptor binding, a feature which appears as clearly distinct.

human CXCR3 [2] = target: T1, human CXCR3; test: radioligand equilibrium binding on CXCR3-transfected HEK and L1.2 clones

Binder | reduction in the affinity for CXCR3 against CXCL11-WT (human CXCR3 [1]) | other results
B1 |  | binding result (human CXCR3 [1]): binds
B2 |  | binding result (human CXCR3 [2]): binds
B3 | ≤ 1 order of magnitude | 
B4 | ≤ 1 order of magnitude | 
B5 | ≤ 1 order of magnitude | 
